Experimental data from PMC5941077.

Target: FLAG-tagged 3D7 CLAG3 protein (3D7 CLAG3.1 with tandem miniSOG-FLAG tag, TFLC3 parasite) (Plasmodium falciparum (3D7 line)) (UniProt O77310)
Test: co-IP; TFLC3 trophozoite-infected cell lysate in 50 mM Tris-HCl pH 7.4, 150 mM NaCl, 5 mM EDTA, 1% Triton X-100; anti-FLAG agarose beads, at least 2 h at 4°C; immunoblot probed with anti-HA; eluate compared with serial dilutions of the input

UniProt O77310, sequence (O77310 25-1417): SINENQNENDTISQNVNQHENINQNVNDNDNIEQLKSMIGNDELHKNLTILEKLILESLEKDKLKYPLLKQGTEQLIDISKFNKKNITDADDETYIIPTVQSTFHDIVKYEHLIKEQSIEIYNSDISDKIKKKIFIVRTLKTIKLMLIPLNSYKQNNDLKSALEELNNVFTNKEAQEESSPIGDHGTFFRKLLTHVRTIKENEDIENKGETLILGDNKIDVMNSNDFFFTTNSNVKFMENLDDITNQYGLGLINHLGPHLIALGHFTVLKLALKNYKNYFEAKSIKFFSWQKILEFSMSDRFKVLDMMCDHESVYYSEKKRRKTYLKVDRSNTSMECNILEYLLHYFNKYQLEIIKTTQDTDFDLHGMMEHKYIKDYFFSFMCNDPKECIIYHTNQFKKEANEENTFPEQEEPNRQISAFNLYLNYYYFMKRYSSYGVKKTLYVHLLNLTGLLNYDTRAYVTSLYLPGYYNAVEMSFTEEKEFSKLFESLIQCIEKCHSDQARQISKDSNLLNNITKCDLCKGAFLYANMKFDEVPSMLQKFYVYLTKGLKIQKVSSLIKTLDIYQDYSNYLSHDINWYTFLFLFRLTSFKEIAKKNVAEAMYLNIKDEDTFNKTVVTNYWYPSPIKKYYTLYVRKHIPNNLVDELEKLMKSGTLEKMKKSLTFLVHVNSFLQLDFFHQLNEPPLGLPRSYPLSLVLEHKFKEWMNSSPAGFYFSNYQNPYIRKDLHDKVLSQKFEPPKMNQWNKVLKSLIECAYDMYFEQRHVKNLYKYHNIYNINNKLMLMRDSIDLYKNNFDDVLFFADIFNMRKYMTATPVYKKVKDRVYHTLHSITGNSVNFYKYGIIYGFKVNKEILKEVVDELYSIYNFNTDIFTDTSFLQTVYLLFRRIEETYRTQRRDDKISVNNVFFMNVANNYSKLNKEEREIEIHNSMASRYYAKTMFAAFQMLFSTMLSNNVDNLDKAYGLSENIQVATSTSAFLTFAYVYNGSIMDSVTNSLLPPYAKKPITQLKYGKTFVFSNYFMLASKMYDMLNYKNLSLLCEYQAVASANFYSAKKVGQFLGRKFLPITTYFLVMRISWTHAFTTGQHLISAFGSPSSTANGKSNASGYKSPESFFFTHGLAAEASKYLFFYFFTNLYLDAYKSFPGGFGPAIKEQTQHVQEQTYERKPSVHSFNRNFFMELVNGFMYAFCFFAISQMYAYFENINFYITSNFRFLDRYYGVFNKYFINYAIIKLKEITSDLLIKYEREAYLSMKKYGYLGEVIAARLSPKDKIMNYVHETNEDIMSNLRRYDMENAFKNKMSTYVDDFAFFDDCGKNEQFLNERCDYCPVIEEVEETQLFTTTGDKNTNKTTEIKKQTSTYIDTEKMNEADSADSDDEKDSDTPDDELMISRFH

HA-tagged Dd2 CLAG3 protein (TFLC3 parasite) (natural protein)
percent of the HA-tagged isoform coprecipitated on anti-FLAG beads: 1 to 10%
